One experiment addresses T1, His-p53 wild-type (human, UniProt P04637 1-393).
T1 construct: also called His-tagged p53; WT p53; source: E. coli, purified (Ni-NTA agarose); not shown: His, N-terminal, kept
Briefly: pull-down. The note with it: both partners purified.

In experiment [1] the target is T2, FLAG-p53 wild type, from 293T cells (human, UniProt P04637 1-393).
T2 construct: also called FLAG-p53 (WT); p53 protein (WT); source: 293T, transfected, with or without ionizing radiation (20 Gy), purified on anti-FLAG antibody resin
Briefly: pull-down. The note with it: both partners purified.

B1: purified recombinant BZLF1 protein (natural protein)
chain: MMDPNSTSEDVKFTPDPYQVPFVQAFDQATRVYQDLGGPSQAPLPCVLWPVLPEPLPQGQLTAYHVSTAPTGSWFSAPQPAPENAYQAYAAPQLFPVSDITQNQQTNQAGGEAPQPGDNSTVQTAAAVVFACPGANQGQQLADIGVPQPAPVAAPARRTRKPQQPESLEECDSELEIKRYKNRVASRKCRAKFKQLLQHYREVAAAKSSENDRLRLLLKQMCPSLDVDSIIPRTPDVLHEDLLNF
notes: also called EBV BZLF1 protein; source: Hi-Five cells infected with recombinant baculovirus AcBZLF1, purified (extracted from nuclei with 0.6 M NaCl; purity more than 90%)
Regarding B1, the binding result (with His-p53 wild-type; in experiment [1]) was “binds” each time.

For the origin of these results see article PMC2712087 (PLoS Pathogens, 2009).
